Results: patent publication US20190330625A1, “CONSEQUENCES OF A DEFECTIVE SWITCH IN CUTANEOUS SQUAMOUS CELL CARCINOMA” (AGENCY FOR SCIENCE, TECHNOLOGY AND RESEARCH, published 2019)

T1: Wnt7a (UniProt O00755 32-349, limits assumed)
T1 construct: Endogenous protein of the A253 (HNSCC) cell lysate
T1 sequence (looked up): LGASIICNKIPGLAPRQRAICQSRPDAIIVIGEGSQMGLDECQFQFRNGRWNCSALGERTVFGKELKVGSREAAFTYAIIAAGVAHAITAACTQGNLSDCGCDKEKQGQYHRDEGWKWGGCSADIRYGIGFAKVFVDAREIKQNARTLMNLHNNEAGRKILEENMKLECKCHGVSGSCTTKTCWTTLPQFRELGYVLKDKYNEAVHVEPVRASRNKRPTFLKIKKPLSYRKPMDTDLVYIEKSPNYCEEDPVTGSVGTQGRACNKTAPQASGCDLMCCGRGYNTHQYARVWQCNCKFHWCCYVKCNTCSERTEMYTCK

B1: pre-miR-198 WT (ssRNA)
RNA: UCAUUGGUCCAGAGGGGAGAUAGGUUCCUGUGAUUUUUCCUUCUUCUCUAUAGAAUAAAUGA
B2: Follistatin-related protein 1 (FSTL1) (other)
chain: EEELRSKSKICANVFCGAGRECAVTEKGEPTCLCIEQCKPHKRPVCGSNGKTYLNHCELHRDACLTGSKIQVDYDGHCKEKKSVSPSASPVVCYQSNRDELRRRIIQWLEAEIIPDGWFSKGSNYSEILDKYFKNFDNGDSRLDSSEFLKFVEQNETAINITTYPDQENNKLLRGLCVDALIELSDENADWKLSFQEFLKCLNPSFNPPEKKCALEDETYADGAETEVDCNRCVCACGNWVCTAMTCDGKNQKGAQTQTEEEMTRYVQELQKHQETAEKTKRVSTKEI
notes: Endogenous secreted glycoprotein in A253 cell lysates, pulled down with the anti-FSTL1 antibody; also called follistatin-like-1

What was measured:
HuR (ELAVL1) = HuR (ELAVL1) (UniProt Q15717 Q15717:1-326); assay: EMSA; 0.2-0.6 uM HuR; 30 mM Tris pH 7.4, 5 mM MgCl2, 50 mM KCl, yeast tRNA, room temperature; sequence listed as DNA, assayed as RNA transcript; details: pre-miRNA hairpin
Description: After 30 minutes at room temperature, reaction products were resolved through 6% native polyacrylamide gel electrophoresis. […] The resulting gel was dried and the protein RNA complex and unbound RNA were visualized by phosphor-imaging.

Wnt7a = molecular target: T1, Wnt7a; assay: co-IP with anti-FSTL1 antibody or IgG control from A253 lysate, western blot for Wnt7a

Chain of HuR (ELAVL1) (Q15717 whole entry, one chain of several): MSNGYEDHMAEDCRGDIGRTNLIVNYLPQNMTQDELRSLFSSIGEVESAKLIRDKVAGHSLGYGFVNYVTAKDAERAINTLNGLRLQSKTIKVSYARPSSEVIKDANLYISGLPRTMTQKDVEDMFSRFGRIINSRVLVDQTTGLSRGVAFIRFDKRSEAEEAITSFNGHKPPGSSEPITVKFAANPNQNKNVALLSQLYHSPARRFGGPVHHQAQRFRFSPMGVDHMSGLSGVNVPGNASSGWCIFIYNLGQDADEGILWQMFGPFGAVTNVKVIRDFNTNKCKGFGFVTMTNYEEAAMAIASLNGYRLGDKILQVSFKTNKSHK

| Binder | binding result (HuR (ELAVL1)) | binding result (Wnt7a) |
| --- | --- | --- |
| B1 | binds |  |
| B2 |  | binds |
